Assay results: the supplement of paper PMC7877785
± gives the uncertainty stated by the source.

Assay: self-splicing fitness, log relative to wild type (ln ratio); higher = more splicing; Tetrahymena group I intron in knt gene, E. coli kanamycin selection, DiMSum; sequences stand for … in CUCUCU…GGAGGGAAAAGUUAUCAGGCAUGCACCUGGUAGCUAGUCUUUAAACCAAUAGAUUGCAUCGGUUUAAAAGGCAAGACCGUCAAAUUGCGGGAAAGGGGUCAACAGCCGUUCAGUACCAAGUCUCAGGGGAAACUUUGAGAUGGCCUUGCAAAGGGUAUGGUAAUAAGCUGACGGACAUGGUCCUAACCACGCAGCCAAGUCCUAAGUCAACAGAUCUUCUGUUGAUAUGGAUGCAGUUCACAGACUAAAUGUCGGUCGGGGAAGAUGUAUUCUUCUCAUAAGAUAUAGUCGGACCUCUCCUUAAUGGGAGCUAGCGGAUGAAGUGAUGCAACACUGGAGCCGCUGGGAACUAAUUUGUAUGCGAAAGUAUAUUGAUUAGUUUUGGAGUACUCGUGGUCG
Procedure, shortened: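 Fitness was computed with DiMSum as the error-weighted combination of replicate fold changes, kanamycin versus none, each normalised to wild type. The library randomised all eight intron nucleotides of the P1ex region, with the intron placed in the knt kanamycin-resistance gene on pET-22b(+) in E. coli BL21(DE3). Six replicate transformations were grown overnight at 37°C or 30°C on LB agar with or without 25 μg/mL kanamycin, plus 100 μg/mL carbenicillin, 50 μM IPTG and 0.2% rhamnose. Pooled colonies were amplicon-sequenced on an Illumina HiSeq 2500.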

| Sequence | self-splicing fitness (ln) (30 °C) | self-splicing fitness (ln) (37 °C) |
| --- | --- | --- |
| UACAAGCAAUAUUACGGUUU | -1.86 ± 0.093 | -0.738 ± 0.095 |
| UACAAGCAAUAUUACGUACU | -2.71 ± 0.14 | -1.45 ± 0.13 |
| UACAAGCAAUAUUACGUCCU | -1.16 ± 0.1 | 0.292 ± 0.15 |
| UACAAGCAAUAUUACGUCGC | -2.94 ± 0.11 | -2.51 ± 0.14 |
| UACAAGCAAUAUUACGUCUA | -0.798 ± 0.049 | 0.00361 ± 0.068 |
| UACAAGCAAUAUUACGUCUC | -1.68 ± 0.1 | -2.24 ± 0.17 |
| UACAAGCAAUAUUACGUGUC | -3.91 ± 0.14 | -1.15 ± 0.094 |
| UACCAGCAAUAUUACGAAUC | -2.37 ± 0.2 | -1.05 ± 0.23 |
| UACCAGCAAUAUUACGAAUG | -0.839 ± 0.055 | -0.00427 ± 0.073 |
| UACCAGCAAUAUUACGACAA | -0.483 ± 0.099 | -0.494 ± 0.09 |
| UACCAGCAAUAUUACGACAG | -1.2 ± 0.056 | -0.278 ± 0.076 |
| UACCAGCAAUAUUACGACGA | -0.586 ± 0.086 | 0.837 ± 0.11 |
| UACCAGCAAUAUUACGAGGG | -3.38 ± 0.2 | -1.3 ± 0.12 |
| UACCAGCAAUAUUACGAGGU | -3.36 ± 0.22 | -3.39 ± 0.23 |
| UACCAGCAAUAUUACGAGUG | -0.127 ± 0.052 | -0.0711 ± 0.067 |
| UACCAGCAAUAUUACGCAAG | -2.3 ± 0.13 | -0.829 ± 0.13 |
| UACCAGCAAUAUUACGCACC | -1.52 ± 0.26 | -0.172 ± 0.21 |
| UACCAGCAAUAUUACGCCAA | -2.05 ± 0.12 | -0.589 ± 0.099 |
| UACCAGCAAUAUUACGCGAU | -2.6 ± 0.17 | -0.608 ± 0.15 |
| UACCAGCAAUAUUACGCGCU | -3.47 ± 0.37 | -1.77 ± 0.22 |
| UACCAGCAAUAUUACGCUCU | -0.618 ± 0.072 | 0.00956 ± 0.082 |
| UACCAGCAAUAUUACGCUGG | -3.35 ± 0.18 | -2.77 ± 0.22 |
| UACCAGCAAUAUUACGCUGU | -3.86 ± 0.17 | -1.36 ± 0.13 |
| UACCAGCAAUAUUACGGCAG | -0.582 ± 0.081 | 0.685 ± 0.1 |
| UACCAGCAAUAUUACGGCGA | -0.21 ± 0.13 | 0.254 ± 0.19 |

| Sequence | self-splicing fitness (ln) (30 °C) | self-splicing fitness (ln) (37 °C) |
| --- | --- | --- |
| UACCAGCAAUAUUACGGGUG | -3.23 ± 0.097 | -1.78 ± 0.078 |
| UACCAGCAAUAUUACGGUGA | -0.536 ± 0.057 | 0.0523 ± 0.075 |
| UACCAGCAAUAUUACGUCGU | -2.09 ± 0.09 | -2.14 ± 0.12 |
| UACCAGCAAUAUUACGUGAG | -2.27 ± 0.083 | -1.56 ± 0.085 |
| UACCAGCAAUAUUACGUGAU | -1.93 ± 0.063 | -1.41 ± 0.074 |
| UACCAGCAAUAUUACGUGCC | -3.35 ± 0.24 | -0.584 ± 0.19 |
| UACCAGCAAUAUUACGUGGU | -3.86 ± 0.14 | -2.89 ± 0.16 |
| UACCAGCAAUAUUACGUGUA | -2.59 ± 0.12 | -1.67 ± 0.1 |
| UACCAGCAAUAUUACGUGUG | -1.22 ± 0.046 | -0.527 ± 0.059 |
| UACCAGCAAUAUUACGUUAG | -1.18 ± 0.068 | -1.16 ± 0.067 |
| UACGAGCAAUAUUACGACAU | -3.899 ± 0.031 | -2.47 ± 0.04 |
| UACGAGCAAUAUUACGAUGG | -2.85 ± 0.22 | -2.29 ± 0.24 |
| UACGAGCAAUAUUACGCACG | -2.94 ± 0.2 | -1.3 ± 0.18 |
| UACGAGCAAUAUUACGCAUC |  | -1.96 ± 0.21 |
| UACGAGCAAUAUUACGCGCC | -2.33 ± 0.42 |  |
| UACGAGCAAUAUUACGCUCG |  | -1.74 ± 0.31 |
| UACGAGCAAUAUUACGGACG | -2.32 ± 0.12 | -1.24 ± 0.15 |
| UACGAGCAAUAUUACGGAUA | -2.3 ± 0.17 | -1.43 ± 0.12 |
| UACGAGCAAUAUUACGGCCA | -1.61 ± 0.21 | -1.85 ± 0.18 |
| UACGAGCAAUAUUACGGGCU |  | -2.43 ± 0.27 |
| UACGAGCAAUAUUACGUACA | -0.833 ± 0.27 | -1.22 ± 0.48 |
| UACUAGCAAUAUUACGAAUA | -1.51 ± 0.18 | -0.474 ± 0.13 |
| UACUAGCAAUAUUACGAUGC | -4.22 ± 0.26 | -2.54 ± 0.3 |
| UACUAGCAAUAUUACGCAGA | -3.67 ± 0.47 | -2.27 ± 0.22 |
| UACUAGCAAUAUUACGCAUU | -3.73 ± 0.21 | -1.81 ± 0.14 |

| Sequence | self-splicing fitness (ln) (30 °C) | self-splicing fitness (ln) (37 °C) |
| --- | --- | --- |
| UACUAGCAAUAUUACGCCGU | -2.24 ± 0.25 | -2.67 ± 0.48 |
| UACUAGCAAUAUUACGCGAG | -1.86 ± 0.072 | -1.59 ± 0.07 |
| UACUAGCAAUAUUACGCGCA | -0.569 ± 0.071 | 0.207 ± 0.094 |
| UACUAGCAAUAUUACGCGGA | -2.97 ± 0.18 | -1.42 ± 0.16 |
| UACUAGCAAUAUUACGCGGU | -3.43 ± 0.47 | -2.52 ± 0.33 |
| UACUAGCAAUAUUACGCGUA | -2.63 ± 0.22 | -2.33 ± 0.23 |
| UACUAGCAAUAUUACGCUAC |  | -2.01 ± 0.34 |
| UACUAGCAAUAUUACGCUAG | -3.86 ± 0.25 | -2.08 ± 0.21 |
| UACUAGCAAUAUUACGCUCU | -0.792 ± 0.085 | -0.262 ± 0.1 |
| UACUAGCAAUAUUACGGAUC | -2.66 ± 0.19 | -1.7 ± 0.24 |
| UACUAGCAAUAUUACGGAUG | -0.926 ± 0.077 | -0.112 ± 0.11 |
| UACUAGCAAUAUUACGGCCU | -1.25 ± 0.095 | -0.333 ± 0.11 |
| UACUAGCAAUAUUACGGCGC | -1.6 ± 0.28 | -1.55 ± 0.31 |
| UACUAGCAAUAUUACGGGUA | -2.08 ± 0.14 | -1.84 ± 0.13 |
| UACUAGCAAUAUUACGGUAU | -2.78 ± 0.33 | -2.63 ± 0.36 |
| UACUAGCAAUAUUACGGUCC | -1.59 ± 0.14 | -0.676 ± 0.16 |
| UACUAGCAAUAUUACGUAUU | -4.56 ± 0.29 | -2.24 ± 0.15 |
| UACUAGCAAUAUUACGUCCA | -0.715 ± 0.1 | -0.49 ± 0.13 |
| UACUAGCAAUAUUACGUGUA | -3.12 ± 0.28 | -0.943 ± 0.14 |
| UACUAGCAAUAUUACGUUAU | -3.58 ± 0.18 | -1.45 ± 0.14 |
| UAGAAGCAAUAUUACGACCU | 0.0379 ± 0.17 | -1.35 ± 0.14 |
| UAGAAGCAAUAUUACGACGG | -0.626 ± 0.095 | 0.0889 ± 0.14 |
| UAGAAGCAAUAUUACGCCAA | -1.44 ± 0.29 | -1.39 ± 0.28 |
| UAGAAGCAAUAUUACGCCGU | -2.41 ± 0.23 | -2.68 ± 0.36 |
| UAGAAGCAAUAUUACGCGAC | -3.67 ± 0.32 | -2.08 ± 0.33 |

| Sequence | self-splicing fitness (ln) (30 °C) | self-splicing fitness (ln) (37 °C) |
| --- | --- | --- |
| UAGAAGCAAUAUUACGCGAG | -0.342 ± 0.12 | -0.636 ± 0.12 |
| UAGAAGCAAUAUUACGCUAG | -1.18 ± 0.13 | -0.412 ± 0.16 |
| UAGAAGCAAUAUUACGGAAU | -2.11 ± 0.18 | -2.38 ± 0.36 |
| UAGAAGCAAUAUUACGGACU | -1.29 ± 0.13 | 0.474 ± 0.11 |
| UAGAAGCAAUAUUACGGAGG | -3.39 ± 0.3 | -0.889 ± 0.27 |
| UAGAAGCAAUAUUACGGCUU | -3.59 ± 0.48 | -1.67 ± 0.23 |
| UAGAAGCAAUAUUACGGGCU | -3.1 ± 0.23 | -3.1 ± 0.26 |
| UAGAAGCAAUAUUACGUACG | -0.237 ± 0.1 | -0.721 ± 0.13 |
| UAGAAGCAAUAUUACGUAGG | -1.78 ± 0.093 | -1.61 ± 0.16 |
| UAGAAGCAAUAUUACGUAGU | -3.71 ± 0.25 | -2.01 ± 0.22 |
| UAGAAGCAAUAUUACGUAUU | -2.3 ± 0.087 | -2.22 ± 0.12 |
| UAGAAGCAAUAUUACGUGUU | -3.84 ± 0.14 | -2.42 ± 0.11 |
| UAGAAGCAAUAUUACGUUAG | -2.51 ± 0.1 | -0.338 ± 0.093 |
| UAGAAGCAAUAUUACGUUAU | -3.81 ± 0.14 | -2.76 ± 0.12 |
| UAGAAGCAAUAUUACGUUCA | -0.483 ± 0.063 | 0.196 ± 0.082 |
| UAGCAGCAAUAUUACGACAU | -1.604 ± 0.013 | -0.682 ± 0.033 |
| UAGCAGCAAUAUUACGACCA | -0.457 ± 0.12 | 0.838 ± 0.17 |
| UAGCAGCAAUAUUACGACUA | 0.282 ± 0.1 | 0.568 ± 0.13 |
| UAGCAGCAAUAUUACGAGAA | -2.19 ± 0.23 | -0.949 ± 0.18 |
| UAGCAGCAAUAUUACGAGGA | -3.39 ± 0.17 | -2.06 ± 0.13 |
| UAGCAGCAAUAUUACGAGGC |  | -3.43 ± 0.31 |
| UAGCAGCAAUAUUACGCAGC | -2.6 ± 0.22 | -1.75 ± 0.19 |
